This note sets out measurements from patent US20260184782A1 (TWIST BIOSCIENCE, published 2026).

In this experiment the target is T1, recombinant human TIGIT (human, UniProt Q495A1 22-141, limits assumed).
T1 construct: recombinant human TIGIT used in Carterra SPR; also called hTIGIT
T1 sequence (looked up): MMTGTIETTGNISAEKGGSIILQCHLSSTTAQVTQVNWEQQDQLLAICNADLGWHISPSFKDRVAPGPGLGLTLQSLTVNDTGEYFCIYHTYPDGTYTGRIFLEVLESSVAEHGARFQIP
Description: SPR Carterra, average. On the procedure:
Binding affinities of VHH-Fc proteins to recombinant human TIGIT were measured by SPR using a Carterra instrument (Table 10A). […] Average values reported from measurements from 1-2 samples.

Residue numbers refer to the chain shown, from its start.

B1: TIGIT-SC114 (Fc fusion)
VHH: EVQLVESGGGLVQPGGSLRLSCAASGNTFSGGFMGWFRQAPGKEREWVASVLRGGYTWYADSVKGRFTISADNSKNTAYLQMNSLKPEDTAVYYCATVGGRQRTLFDDWGQGTLVTVSS
notes: VHH-Fc fusion in assay
Broadly, the Kd is a measure of binding affinity in units of concentration. As usually defined, the koff is the first-order rate constant of dissociation. For orientation: kon means a measure of how fast the partners come together. Take B1: the Kd was determined as 45.2 nM, the koff worked out at 0.00227 s⁻¹ and the kon was 50700 M⁻¹ s⁻¹.

B2: TIGIT-SC155 (Fc fusion)
VHH: B1 VHH with T97G, V98D, G99Y, G100R, R101G, Q102F, R103E, T104M, L105A, D108P
notes: VHH-Fc fusion in assay
Consider B2, for which the Kd was 126 nM, the koff was 0.00647 s⁻¹ and the kon was 51300 M⁻¹ s⁻¹.

B3: TIGIT-SC158 (Fc fusion)
VHH: EVQLVESGGGLVQPGGSLRLSCAASGFTFSPSWMGWFRQAPGKEREWVASVLRGGYTWYADSVKGRFTISADNSKNTAYLQMNSLKPEDTAVYYCAREGRSSSPWFDPWGQGTLVTVSS
notes: VHH-Fc fusion in assay
With B3, the Kd is 143 nM, the koff came out at 0.00154 s⁻¹ and the kon was determined as 18200 M⁻¹ s⁻¹.

B4: TIGIT-SC159 (Fc fusion)
VHH: B3 VHH with S30D, P31R
notes: VHH-Fc fusion in assay
On to B4, for which the Kd was determined as 14.6 nM, the koff turned out to be 0.00144 s⁻¹ and the kon was found to be 92000 M⁻¹ s⁻¹.

B5: TIGIT-SC25 (Fc fusion)
VHH: EVQLVESGGGLVQPGGSLRLSCAASGNTFSGGFMGWFRQAPGKEREWVASVLRGGYTWYADSVKGRFTISADNSKNTAYLQMNSLKPEDTAVYYCTTVGYGDYWGQGTLVTVSS
notes: VHH-Fc fusion in assay
Turning to B5, the Kd is 22.5 nM, the koff is 0.00174 s⁻¹ and the kon was 77200 M⁻¹ s⁻¹.

B6: TIGIT-SC171 (Fc fusion)
VHH: EVQLVESGGGLVQPGGSLRLSCAASGFTFDRSWMGWFRQAPGKEREWVASVLRGGYTWYADSVKGRFTISADNSKNTAYLQMNSLKPEDTAVYYCATERRLGVWGQGTLVTVSS
notes: VHH-Fc fusion in assay
On to B6, for which the Kd came to 51 nM, the koff was 0.00441 s⁻¹ and the kon worked out at 90200 M⁻¹ s⁻¹.

B7: TIGIT-SC42 (Fc fusion)
VHH: B5 VHH with S50T, T96A, T97S, V98G, Y100F, G101L, D102A, Y103S
notes: VHH-Fc fusion in assay
As to B7, the Kd turned out to be 1400 nM, the koff amounted to 0.197 s⁻¹ and the kon stood at 141000 M⁻¹ s⁻¹.

B8: TIGIT-SC191 (Fc fusion)
VHH: B6 VHH with T28V, D30S, R31S, S32D, T97R, E98G, R99D, R100S, L101M, G102D
notes: VHH-Fc fusion in assay
Take B8: the Kd is 401 nM, the dissociation rate constant (koff) is 0.125 s⁻¹ and the kon is 313000 M⁻¹ s⁻¹.

B9: TIGIT-SC113 (Fc fusion)
VHH: EVQLVESGGGLVQPGGSLRLSCAASGFTLNDYAMGWFRQAPGKERELVAWIARYDGSTLYADSVKGRFTISADNSKNTAYLQMNSLKPEDTAVYYCTWGDGYNLGAFDIWGQGTLVTVSS
notes: VHH-Fc fusion in assay
B9: the Kd was 1.88 nM, the koff came out at 0.000483 s⁻¹ and the kon was 257000 M⁻¹ s⁻¹.

B10: TIGIT-SC112 (Fc fusion)
VHH: B9 VHH with F27R, N30R, D31R, A33V, W50A, A52D, R53W, Y54S, D55G, T58A
notes: VHH-Fc fusion in assay
For the molecule B10, the Kd amounted to 13.2 nM, the koff is 0.00393 s⁻¹ and the kon came out at 297000 M⁻¹ s⁻¹.

B11: TIGIT-SC169 (Fc fusion)
VHH: B9 VHH with W98T, G99E, D100L, G101R, Y102W, N103E, G105Q, A106Q, F107P, I109Y
notes: VHH-Fc fusion in assay
Take B11: the Kd is 978 nM, the off-rate constant (koff) was 0.206 s⁻¹ and the kon came out at 211000 M⁻¹ s⁻¹.

B12: TIGIT-SC24 (Fc fusion)
VHH: EVQLVESGGGLVQPGGSLRLSCAASGFTFDRSWMGWFRQAPGKEREVVASITSGGSTYYADSVKGRFTISADNSKNTAYLQMNSLKPEDTAVYYCAADVWYGSTWRNWGQGTLVTVSS
notes: VHH-Fc fusion in assay
Regarding B12, the Kd came out at 3.08 nM, the koff came to 0.000894 s⁻¹ and the kon worked out at 506000 M⁻¹ s⁻¹.

B13: TIGIT-SC51 (Fc fusion)
VHH: EVQLVESGGGLVQPGGSLRLSCAASGRTEANYAMGWFRQAPGKEREFVAAISWDGGATAYADSVKGRFTISADNSKNTAYLQMNSLKPEDTAVYYCGDYEGHWGQGTLVTVSS
notes: VHH-Fc fusion in assay
As to B13, the Kd turned out to be 5.15 nM, the koff is 0.00981 s⁻¹ and the kon turned out to be 2.1e+06 M⁻¹ s⁻¹.

B14: TIGIT-SC68 (Fc fusion)
VHH: B13 VHH with R27H, E29F, A30R, N31G, F47A, D54S, G56D, A57N, A59Y
notes: VHH-Fc fusion in assay
Regarding B14, the Kd was found to be 5.49 nM, the koff came to 0.0103 s⁻¹ and the kon was 1.87e+06 M⁻¹ s⁻¹.

B15: TIGIT-SC54 (Fc fusion)
VHH: EVQLVESGGGLVQPGGSLRLSCAASGFSFDDYVMGWFRQAPGKERELVAVIVGEAITRYADSVKGRFTISADNSKNTAYLQMNSLKPEDTAVYYCARRGGSGRAFDIWGQGTLVTVSS
notes: VHH-Fc fusion in assay
As for B15, the Kd worked out at 3.71 nM, the koff was determined as 0.00982 s⁻¹ and the kon is 3e+06 M⁻¹ s⁻¹.

B16: TIGIT-SC134 (Fc fusion)
VHH: EVQLVESGGGLVQPGGSLRLSCAASGFTLENNMMGWFRQAPGKEREFVAAISASGTLRAYADSVKGRFTISADNSKNTAYLQMNSLKPEDTAVYYCARWYRVNNWSPGYYYYMDVWGQGTLVTVSS
notes: VHH-Fc fusion in assay
With B16, the Kd was 1.47 nM, the koff worked out at 8.98e-05 s⁻¹ and the kon amounted to 60900 M⁻¹ s⁻¹.

B17: TIGIT-SC13 (Fc fusion)
VHH: EVQLVESGGGLVQPGGSLRLSCAASGRTFSFMGWFRQAPGKEREWVASVLRGGYTWYADSVKGRFTISADNSKNTAYLQMNSLKPEDTAVYYCATESMDYWGQGTLVTVSS
notes: VHH-Fc fusion in assay
For B17, the Kd was found to be 3.08 nM, the koff was found to be 0.000199 s⁻¹ and the kon came to 60100 M⁻¹ s⁻¹.

B18: TIGIT-SC121 (Fc fusion)
VHH: EVQLVESGGGLVQPGGSLRLSCAASGFTFSPSWMGWFRQAPGKEREWVASVLRGGYTWYADSVKGRFTISADNSKNTAYLQMNSLKPEDTAVYYCTTEGFDPWGQGTLVTVSS
notes: VHH-Fc fusion in assay
In the case of B18, the Kd was determined as 4.68 nM, the koff was determined as 0.00112 s⁻¹ and the kon was determined as 344000 M⁻¹ s⁻¹.

B19: TIGIT-SC98 (Fc fusion)
VHH: B18 VHH with F27N, P31G, S32G, W33F
notes: VHH-Fc fusion in assay
For the molecule B19, the Kd was determined as 5.79 nM, the koff was found to be 0.00137 s⁻¹ and the kon stood at 237000 M⁻¹ s⁻¹.

B20: TIGIT-SC60 (Fc fusion)
VHH: B18 VHH with T96A, T97R, E98D, G99D, F100L, P102Y
notes: VHH-Fc fusion in assay
In the case of B20, the Kd amounted to 84.6 nM, the koff was 0.00184 s⁻¹ and the kon was found to be 21800 M⁻¹ s⁻¹.

B21: TIGIT-SC187 (Fc fusion)
VHH: B18 VHH with E98D, G99S, F100L, D101P, P102G
notes: VHH-Fc fusion in assay
As to B21, the Kd amounted to 17.2 nM, the koff was 0.000586 s⁻¹ and the kon was found to be 34000 M⁻¹ s⁻¹.

B22: TIGIT-SC188 (Fc fusion)
VHH: B18 VHH with F27N, P31G, S32G, W33F, E98D, G99S, F100L, D101P, P102G
notes: VHH-Fc fusion in assay
For the molecule B22, the Kd turned out to be 77.1 nM, the koff came out at 0.00309 s⁻¹ and the kon was 42500 M⁻¹ s⁻¹.

B23: TIGIT-SC111 (Fc fusion)
VHH: B18 VHH with F27D, P31G, S32G, W33F, T97R, E98G, F100M, P102V
notes: VHH-Fc fusion in assay
On to B23, for which the Kd is 4.37 nM, the koff amounted to 0.00743 s⁻¹ and the kon is 1.7e+06 M⁻¹ s⁻¹.

B24: TIGIT-SC31 (Fc fusion)
VHH: EVQLVESGGGLVQPGGSLRLSCAASGRAFESYAMGWFRQAPGKERELVATIGWSGTDYADSVKGRFTISADNSKNTAYLQMNSLKPEDTAVYYCAKGYTSGLSDWGQGTLVTVSS
notes: VHH-Fc fusion in assay
As for B24, the Kd was 4.74 nM, the koff is 0.0062 s⁻¹ and the on-rate (kon) worked out at 1.31e+06 M⁻¹ s⁻¹.

B25: TIGIT-SC46 (Fc fusion)
VHH: EVQLVESGGGLVQPGGSLRLSCAASGRTFSNYVMGWFRQAPGKERELVASISSFGSTYYADSVKGRFTISADNSKNTAYLQMNSLKPEDTAVYYCARSGGFLSDWGQGTLVTVSS
notes: VHH-Fc fusion in assay
In the case of B25, the Kd was 4.45 nM, the koff is 0.00416 s⁻¹ and the kon worked out at 1.01e+06 M⁻¹ s⁻¹.

B26: TIGIT-SC84 (Fc fusion)
VHH: EVQLVESGGGLVQPGGSLRLSCAASGGTFTIYPMGWFRQAPGKEREWVAGINEYGGRYADSVKGRFTISADNSKNTAYLQMNSLKPEDTAVYYCARDLNAMGDAYDIWGQGTLVTVSS
notes: VHH-Fc fusion in assay
For B26, the Kd is ≤ 3.15 nM, the koff is ≤ 1e-05 s⁻¹ and the kon is 3180 M⁻¹ s⁻¹.

B27: TIGIT-SC117 (Fc fusion)
VHH: EVQLVESGGGLVQPGGSLRLSCAASGNTFSGGFMGWFRQAPGKEREWVASVLRGGYTWYADSVKGRFTISADNSKNTAYLQMNSLKPEDTAVYYCDAADYWGQGTLVTVSS
notes: VHH-Fc fusion in assay
With B27, the Kd was 9.63 nM, the koff is 0.0012 s⁻¹ and the kon worked out at 125000 M⁻¹ s⁻¹.

B28: TIGIT-SC57 (Fc fusion)
VHH: B27 VHH with D96T, A97T, A98Y, D99R, Y100G
notes: VHH-Fc fusion in assay
For B28, the Kd came out at 25.2 nM, the koff turned out to be 0.00511 s⁻¹ and the kon is 149000 M⁻¹ s⁻¹.

B29: TIGIT-SC115 (Fc fusion)
VHH: B27 VHH with D96A, A97G, A98T, D99G, Y100L
notes: VHH-Fc fusion in assay
For B29, the Kd came out at 8.42 nM, the koff came out at 0.00241 s⁻¹ and the kon was found to be 262000 M⁻¹ s⁻¹.

B30: TIGIT-SC116 (Fc fusion)
VHH: B27 VHH with N27F, G31P, G32S, F33W
notes: VHH-Fc fusion in assay
As for B30, the Kd came to 4.08 nM, the koff was found to be 0.000696 s⁻¹ and the kon worked out at 209000 M⁻¹ s⁻¹.

B31: TIGIT-SC20 (Fc fusion)
VHH: EVQLVESGGGLVQPGGSLRLSCAASGNTFSGGFMGWFRQAPGKEREWVASVLRGGYTWYADSVKGRFTISADNSKNTAYLQMNSLKPEDTAVYYCATPRGYWGQGTLVTVSS
notes: VHH-Fc fusion in assay
For B31, the equilibrium dissociation constant (Kd) came out at 2.7 nM, the koff came to 0.0007 s⁻¹ and the kon turned out to be 260000 M⁻¹ s⁻¹.
